The target of the experiment is His6-ybbR-alpha-SMA, recombinant, assembled into filaments (human, UniProt P62736 1-377). Briefly: co-sedimentation; actin co-pelleting (spin-down) assay: 4 µM α-SMA pre-assembled into filaments (with Rhodamine muscle actin), 0.4 µM PLCG1 and 1 µM myosin in 50 mM HEPES pH 7.4, 150 mM NaCl, 1 mM TCEP, 2 h at room temperature; high-speed centrifugation; supernatant and pellet on SDS-PAGE. The following applies: both partners purified.

B1: Rat PLCG1 (aa 21-1215) WT, recombinant (enzyme, UniProt P10686 21-1215, looked up)
chain: EVLHLCRSLEVGTVMTLFYSKKSQRPERKTFQVKLETRQITWSRGADKIEGSIDIREIKEIRPGKTSRDFDRYQEDPAFRPDQSHCFVILYGMEFRLKTLSLQATSEDEVNMWIKGLTWLMEDTLQAATPLQIERWLRKQFYSVDRNREDRISAKDLKNMLSQVNYRVPNMRFLRERLTDFEQRSGDITYGQFAQLYRSLMYSAQKTMDLPFLETNTLRTGERPELCQVSLSEFQQFLLEYQGELWAVDRLQVQEFMLSFLRDPLREIEEPYFFLDELVTFLFSKENSVWNSQLDAVCPETMNNPLSHYWISSSHNTYLTGDQFSSESSLEAYARCLRMGCRCIELDCWDGPDGMPVIYHGHTLTTKIKFSDVLHTIKEHAFVASEYPVILSIEDHCSIAQQRNMAQHFRKVLGDTLLTKPVDIAADGLPSPNQLKRKILIKHKKLAEGSAYEEVPTSVMYSENDISNSIKNGILYLEDPVNHEWYPHYFVLTSSKIYYSEETSSDQGNEDEEEPKEASGSTELHSSEKWFHGKLGAGRDGRHIAERLLTEYCIETGAPDGSFLVRESETFVGDYTLSFWRNGKVQHCRIHSRQDAGTPKFFLTDNLVFDSLYDLITHYQQVPLRCNEFEMRLSEPVPQTNAHESKEWYHASLTRAQAEHMLMRVPRDGAFLVRKRNEPNSYAISFRAEGKIKHCRVQQEGQTVMLGNSEFDSLVDLISYYEKHPLYRKMKLRYPINEEALEKIGTAEPDYGALYEGRNPGFYVEANPMPTFKCAVKALFDYKAQREDELTFTKSAIIQNVEKQDGGWWRGDYGGKKQLWFPSNYVEEMINPAILEPEREHLDENSPLGDLLRGVLDVPACQIAIRPEGKNNRLFVFSISMPSVAQWSLDVAADSQEELQDWVKKIREVAQTADARLTEGKMMERRKKIALELSELVVYCRPVPFDEEKIGTERACYRDMSSFPETKAEKYVNKAKGKKFLQYNRLQLSRIYPKGQRLDSSNYDPLPMWICGSQLVALNFQTPDKPMQMNQALFMAGGHCGYVLQPSTMRDEAFDPFDKSSLRGLEPCVICIEVLGARHLPKNGRGIVCPFVEIEVAGAEYDSTKQKTEFVVDNGLNPVWPAKPFHFQISNPEFAFLRFVVYEEDMFSDQNFLAQATFPVKGLKTGYRAVPLKNNYSEDLELASLLIKIDIFPAK
notes: Phospholipase C gamma 1, rat, aa 21-1215; PDB 6PBC (cited) is the structure of PLCG1 from that work; also called wild-type PLCG1; PLCG1 WT; source: expressed and purified as previous published protocol (Hajicek et al, 2019)
As for B1, the binding result is recorded as “binds”.

B2: Rat PLCG1 (aa 21-1215) D1165H, recombinant (enzyme, UniProt P10686 21-1215, looked up)
chain: EVLHLCRSLEVGTVMTLFYSKKSQRPERKTFQVKLETRQITWSRGADKIEGSIDIREIKEIRPGKTSRDFDRYQEDPAFRPDQSHCFVILYGMEFRLKTLSLQATSEDEVNMWIKGLTWLMEDTLQAATPLQIERWLRKQFYSVDRNREDRISAKDLKNMLSQVNYRVPNMRFLRERLTDFEQRSGDITYGQFAQLYRSLMYSAQKTMDLPFLETNTLRTGERPELCQVSLSEFQQFLLEYQGELWAVDRLQVQEFMLSFLRDPLREIEEPYFFLDELVTFLFSKENSVWNSQLDAVCPETMNNPLSHYWISSSHNTYLTGDQFSSESSLEAYARCLRMGCRCIELDCWDGPDGMPVIYHGHTLTTKIKFSDVLHTIKEHAFVASEYPVILSIEDHCSIAQQRNMAQHFRKVLGDTLLTKPVDIAADGLPSPNQLKRKILIKHKKLAEGSAYEEVPTSVMYSENDISNSIKNGILYLEDPVNHEWYPHYFVLTSSKIYYSEETSSDQGNEDEEEPKEASGSTELHSSEKWFHGKLGAGRDGRHIAERLLTEYCIETGAPDGSFLVRESETFVGDYTLSFWRNGKVQHCRIHSRQDAGTPKFFLTDNLVFDSLYDLITHYQQVPLRCNEFEMRLSEPVPQTNAHESKEWYHASLTRAQAEHMLMRVPRDGAFLVRKRNEPNSYAISFRAEGKIKHCRVQQEGQTVMLGNSEFDSLVDLISYYEKHPLYRKMKLRYPINEEALEKIGTAEPDYGALYEGRNPGFYVEANPMPTFKCAVKALFDYKAQREDELTFTKSAIIQNVEKQDGGWWRGDYGGKKQLWFPSNYVEEMINPAILEPEREHLDENSPLGDLLRGVLDVPACQIAIRPEGKNNRLFVFSISMPSVAQWSLDVAADSQEELQDWVKKIREVAQTADARLTEGKMMERRKKIALELSELVVYCRPVPFDEEKIGTERACYRDMSSFPETKAEKYVNKAKGKKFLQYNRLQLSRIYPKGQRLDSSNYDPLPMWICGSQLVALNFQTPDKPMQMNQALFMAGGHCGYVLQPSTMRDEAFDPFDKSSLRGLEPCVICIEVLGARHLPKNGRGIVCPFVEIEVAGAEYDSTKQKTEFVVDNGLNPVWPAKPFHFQISNPEFAFLRFVVYEEHMFSDQNFLAQATFPVKGLKTGYRAVPLKNNYSEDLELASLLIKIDIFPAK
notes: Phospholipase C gamma 1, rat, aa 21-1215, with the human leukemia/lymphoma-associated mutation D1165H; also called recombinant PLCG1 D1165H protein; source: expressed and purified as previous published protocol (Hajicek et al, 2019)
For the molecule B2, the binding result is reported as “binds”.

The record behind these values is publication PMC12457681, “Hyperactive PLCG1 induces cell-autonomous and bystander T cell activation and drug resistance” (EMBO Reports, 2025).
